The text below walks through data of paper PMC5508204, “Escherichia coli FtsA forms lipid-bound minirings that antagonize lateral interactions between FtsZ protofilaments” (Nature Communications, 2017).

B3: Escherichia coli FtsA (natural protein, E. coli, UniProt P0ABH0 1-420, looked up)
chain: MIKATDRKLVVGLEIGTAKVAALVGEVLPDGMVNIIGVGSCPSRGMDKGGVNDLESVVKCVQRAIDQAELMADCQISSVYLALSGKHISCQNEIGMVPISEEEVTQEDVENVVHTAKSVRVRDEHRVLHVIPQEYAIDYQEGIKNPVGLSGVRMQAKVHLITCHNDMAKNIVKAVERCGLKVDQLIFAGLASSYSVLTEDERELGVCVVDIGGGTMDIAVYTGGALRHTKVIPYAGNVVTSDIAYAFGTPPSDAEAIKVRHGCALGSIVGKDESVEVPSVGGRPPRSLQRQTLAEVIEPRYTELLNLVNEEILQLQEKLRQQGVKHHLAAGIVLTGGAAQIEGLAACAQRVFHTQVRIGAPLNITGLTDYAQEPYYSTAVGLLHYGKESHLNGEAEVEKRVTASVGSWIKRLNSWLRKEF
notes: FtsA, actin homologue of the divisome, Escherichia coli, wild type; ATP is thought to be present in the preparation; 0.05 mM ADP was added for storage; also called WT FtsA; His6-tagged FtsA

The data set “Escherichia coli FtsA” deals with B3. The experiment in a line: negative stain transmission electron microscopy on lipid monolayers; E. coli polar lipid monolayer under an EM grid, on storage buffer lacking EDTA (50 mM Tris pH 7.5, 250 mM KCl, 10 mM MgCl2, 10% glycerol). Added in turn: 0.1-1 uM FtsA (40 min), 4 mM ATP (20 min), 5 uM FtsZ (5 min), 4 mM GTP (20 min). Stained with 1% uranyl acetate. To be noted: both partners purified.

Data set [1] deals with the molecule itself. Described as above.
Data set [2] deals with the molecule itself. The experiment in a line: negative stain electron tomography with subtomogram averaging; FtsA minirings with FtsZ protofilaments on lipid monolayers; 300 kV, single-axis tilt series -60 to +60 degrees; 23 tomograms; 18,400 ring-like structures averaged and classified.

B1: Escherichia coli FtsZ (natural protein, E. coli, UniProt P0A9A6 1-383, looked up)
chain: MFEPMELTNDAVIKVIGVGGGGGNAVEHMVRERIEGVEFFAVNTDAQALRKTAVGQTIQIGSGITKGLGAGANPEVGRNAADEDRDALRAALEGADMVFIAAGMGGGTGTGAAPVVAEVAKDLGILTVAVVTKPFNFEGKKRMAFAEQGITELSKHVDSLITIPNDKLLKVLGRGISLLDAFGAANDVLKGAVQGIAELITRPGLMNVDFADVRTVMSEMGYAMMGSGVASGEDRAEEAAEMAISSPLLEDIDLSGARGVLVNITAGFDLRLDEFETVGNTIRAFASDNATVVIGTSLDPDMNDELRVTVVATGIGMDKRPEITLVTNKQVQQPVMDRYQQHGMAPLTQEQKPVAKVVNDNAPQTAKEPDYLDIPAFLRKQAD
notes: FtsZ, tubulin homologue, Escherichia coli, wild type; Assembled with GTP in the assay; also called WT FtsZ; source: E. coli BL21(DE3), from a pET11 plasmid, purified (ammonium sulfate precipitation)
Turning to B1, the binding result (with Escherichia coli FtsA; in data set [1]) was “binds” throughout.

B2: FtsZ* (FtsZ L169R) (natural protein, E. coli, UniProt P0A9A6 1-383, looked up)
chain: MFEPMELTNDAVIKVIGVGGGGGNAVEHMVRERIEGVEFFAVNTDAQALRKTAVGQTIQIGSGITKGLGAGANPEVGRNAADEDRDALRAALEGADMVFIAAGMGGGTGTGAAPVVAEVAKDLGILTVAVVTKPFNFEGKKRMAFAEQGITELSKHVDSLITIPNDKLRKVLGRGISLLDAFGAANDVLKGAVQGIAELITRPGLMNVDFADVRTVMSEMGYAMMGSGVASGEDRAEEAAEMAISSPLLEDIDLSGARGVLVNITAGFDLRLDEFETVGNTIRAFASDNATVVIGTSLDPDMNDELRVTVVATGIGMDKRPEITLVTNKQVQQPVMDRYQQHGMAPLTQEQKPVAKVVNDNAPQTAKEPDYLDIPAFLRKQAD
notes: FtsZ, Escherichia coli, gain-of-function mutant L169R (FtsZ*); Assembled with GTP in the assay; source: E. coli BL21(DE3), from a pET11 plasmid, purified (ammonium sulfate precipitation)
On to B2, for which the binding result (with Escherichia coli FtsA; in data set [1]) was “binds” in each case. For the molecule B3, the “stoichiometry N” value in data set [2] stood at 12 subunits.

By stoichiometry N is commonly meant a count of units in the complex or per binding partner.
